The target of assay [1] is GL50 (ICOS-ligand) on mouse cells (WEHI 231, undifferentiated CCE ES cells, Balb/C and RAG1 -/- splenocytes) (mouse) (UniProt Q9JHJ8). Nature of the assay: flow cytometry, RAG1-/- splenocytes, anti-CD24 stained subset.
The target is the same in assay [2]. Nature of the assay: flow cytometry, Balb/C splenocytes, anti-CD45R/B220 stained subset. (In flow cytometry, cells or beads pass a laser one at a time.)
The target is the same in assay [3]. Nature of the assay: flow cytometry, Balb/C splenocytes, anti-pan NK stained subset.
Assay [4] has the same target. Nature of the assay: flow cytometry, RAG1-/- splenocytes, CD11b+ subset (text value; the table prints 31%).
Assay [5] has the same target. Nature of the assay: flow cytometry, Balb/C splenocytes, anti CD69 stained subset.
The target is the same in assay [6]. Nature of the assay: flow cytometry, titered staining of WEHI 231 cells.
Assay [7] shares this target. Nature of the assay: flow cytometry, RAG1-/- splenocytes, anti-pan NK stained subset.
Assay [8] shares this target. Description: flow cytometry, RAG1-/- splenocytes, anti class II stained subset.
Assay [9] has the same target. Description: flow cytometry, RAG1-/- splenocytes, anti-CD11C stained subset.
Assay [10] has the same target. Nature of the assay: flow cytometry, Balb/C splenocytes, anti-CD19 stained subset.
Assay [11] shares this target. Nature of the assay: flow cytometry, RAG1-/- splenocytes, anti-CD4 stained subset.
The target is the same in assay [12]. Description: flow cytometry, RAG1-/- splenocytes, anti CD69 stained subset.
Assay [13] shares this target. Description: flow cytometry, Balb/C splenocytes, anti-CD11B stained subset.
The target is the same in assay [14]. Nature of the assay: flow cytometry, Balb/C splenocytes, anti-CD24 stained subset.
For assay [15] the target is unchanged. Description: flow cytometry, Balb/C splenocytes, anti-CD11C stained subset.
Assay [16] shares this target. Description: flow cytometry, RAG1-/- splenocytes, anti-CD45R/B220 stained subset.
The target is the same in assay [17]. Nature of the assay: flow cytometry, Balb/C splenocytes, anti-CD3 stained subset.
The target is the same in assay [18]. Nature of the assay: flow cytometry, indirect staining of undifferentiated CCE ES cells.
Assay [19] shares this target. Description: flow cytometry, Balb/C splenocytes, anti CD40 stained subset.
Assay [20] has the same target. Nature of the assay: flow cytometry, Balb/C splenocytes, anti-CD4 stained subset.
Assay [21] shares this target. Description: flow cytometry, Balb/C splenocytes, anti-CD8a stained subset.
The target is the same in assay [22]. Nature of the assay: flow cytometry, Balb/C splenocytes, anti class II stained subset.
Assay [23] has the same target. Nature of the assay: flow cytometry, RAG1-/- splenocytes, anti-CD11B stained subset.

B1: mICOS-mIgG2am (Fc fusion)
chain: EINGSADHRMFSFHNGGVQISCKYPETVQQLKMRLFREREVLCELTKTKGSGNAVSIKNPMLCLYHLSNNSVSFFLNNPDSSQGSYYFCSLSIFDPPPFQERNLSGGYLHIYESQLCCQLKLEPRGPTIKPCPPCKCPAPNLEGGPSVFIFPPKIKDVLMISLSPIVTCVVVDVSEDDPDVQISWFVNNVEVHTAQTQTHREDYNSTLRVVSALPIQHQDWMSGKAFACAVNNKDLPAPIERTISKPKGSVRAPQVYVLPPPEEEMTKKQVTLTCMVTDFMPEDIYVEWTNNGKTELNYKNTEPVLDSDGSYFMYSKLRVEKKNWVERNSYSCSVVHEGLHNHHTTKSFSRTPGK
As for B1, the % ICOS-Ig positive in assay [1] stood at 28%; in [2], 97%; in assay [3], 20%; in [4], 35%; in [5], 25%; in assay [7], 3%. Further, the % ICOS-Ig positive in assay [8] was determined as 3%; in assay [9], 55%; in [10], 97%; in assay [11], 45%; in [12] it was 5%; in assay [13], 26%. Besides, the % ICOS-Ig positive in [14] came out at 94%; in assay [15] it was 43%; in assay [16], 5%; in assay [17] it was 10%; in assay [19], 97%; in assay [20], 8%. Also, the % ICOS-Ig positive was 10% in [21], 95% in assay [22] and 31% in [23]. This molecule also displayed a concentration from which staining was minimally detectable in [6] of 1 µg/mL. The fluorescence shift over background in [18] was determined as 0.5 log.

Source of the values: patent US20040054158A1.
